The record followed here is patent publication US20230272045A1 (published 2023).

By Kd is commonly meant the equilibrium constant for the complex coming apart.

Like-named read-outs stand apart in the source and are kept apart here.

What all share (test): ELISA
Assay [1] has as its target T1, human plasma fibronectin (human, UniProt P02751 32-2296).
In assay [2] the target is T2, human vitronectin (human, UniProt P04004 20-478).
T2 chain: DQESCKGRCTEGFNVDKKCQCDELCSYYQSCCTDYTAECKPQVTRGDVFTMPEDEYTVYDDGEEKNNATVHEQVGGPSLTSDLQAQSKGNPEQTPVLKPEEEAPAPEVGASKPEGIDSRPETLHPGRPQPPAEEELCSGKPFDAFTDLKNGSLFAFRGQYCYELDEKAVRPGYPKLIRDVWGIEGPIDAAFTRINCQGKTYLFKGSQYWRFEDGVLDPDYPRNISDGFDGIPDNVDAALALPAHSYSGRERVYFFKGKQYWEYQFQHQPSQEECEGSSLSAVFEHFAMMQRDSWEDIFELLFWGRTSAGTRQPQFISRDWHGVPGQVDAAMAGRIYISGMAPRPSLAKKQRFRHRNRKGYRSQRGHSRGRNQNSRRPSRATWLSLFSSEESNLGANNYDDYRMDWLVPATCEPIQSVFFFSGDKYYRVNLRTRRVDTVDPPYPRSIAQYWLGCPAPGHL

Assay [3] concerns the target T1, human plasma fibronectin. This is another data set of the same source.
In a further assay the target is human tenascin C (human, UniProt P24821 23-2201).
In the next assay the target is T3, human fibrinogen (human, UniProt P02671 20-644; P02675 31-491; P02679 27-437).
T3 chain 1: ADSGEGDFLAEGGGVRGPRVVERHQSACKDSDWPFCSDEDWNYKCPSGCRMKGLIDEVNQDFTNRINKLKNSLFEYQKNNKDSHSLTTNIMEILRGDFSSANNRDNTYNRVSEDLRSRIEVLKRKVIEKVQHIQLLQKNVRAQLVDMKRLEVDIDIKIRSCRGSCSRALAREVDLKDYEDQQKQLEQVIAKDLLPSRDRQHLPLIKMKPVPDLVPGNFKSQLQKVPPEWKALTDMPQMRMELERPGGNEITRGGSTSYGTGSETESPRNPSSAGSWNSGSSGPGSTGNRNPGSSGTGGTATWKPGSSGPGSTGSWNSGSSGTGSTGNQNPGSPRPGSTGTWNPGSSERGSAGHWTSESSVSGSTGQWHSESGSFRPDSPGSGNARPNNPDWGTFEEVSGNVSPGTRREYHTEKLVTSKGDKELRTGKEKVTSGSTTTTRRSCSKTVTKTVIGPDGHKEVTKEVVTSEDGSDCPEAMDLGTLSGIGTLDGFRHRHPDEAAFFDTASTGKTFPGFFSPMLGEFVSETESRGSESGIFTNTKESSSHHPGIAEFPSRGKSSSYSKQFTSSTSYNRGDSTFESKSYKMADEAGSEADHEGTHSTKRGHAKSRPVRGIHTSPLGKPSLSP
T3 chain 2: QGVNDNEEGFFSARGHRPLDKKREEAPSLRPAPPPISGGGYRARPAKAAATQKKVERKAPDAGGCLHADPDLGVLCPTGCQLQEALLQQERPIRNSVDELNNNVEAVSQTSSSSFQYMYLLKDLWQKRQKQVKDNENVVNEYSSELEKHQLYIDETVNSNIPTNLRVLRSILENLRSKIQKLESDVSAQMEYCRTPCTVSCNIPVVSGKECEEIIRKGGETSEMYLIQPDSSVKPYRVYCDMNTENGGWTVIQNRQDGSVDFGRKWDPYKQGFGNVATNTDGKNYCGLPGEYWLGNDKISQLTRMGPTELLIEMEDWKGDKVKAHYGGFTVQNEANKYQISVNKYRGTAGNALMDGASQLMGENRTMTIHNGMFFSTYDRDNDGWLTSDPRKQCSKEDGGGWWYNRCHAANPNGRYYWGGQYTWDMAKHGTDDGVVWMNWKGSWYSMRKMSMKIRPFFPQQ
T3 chain 3: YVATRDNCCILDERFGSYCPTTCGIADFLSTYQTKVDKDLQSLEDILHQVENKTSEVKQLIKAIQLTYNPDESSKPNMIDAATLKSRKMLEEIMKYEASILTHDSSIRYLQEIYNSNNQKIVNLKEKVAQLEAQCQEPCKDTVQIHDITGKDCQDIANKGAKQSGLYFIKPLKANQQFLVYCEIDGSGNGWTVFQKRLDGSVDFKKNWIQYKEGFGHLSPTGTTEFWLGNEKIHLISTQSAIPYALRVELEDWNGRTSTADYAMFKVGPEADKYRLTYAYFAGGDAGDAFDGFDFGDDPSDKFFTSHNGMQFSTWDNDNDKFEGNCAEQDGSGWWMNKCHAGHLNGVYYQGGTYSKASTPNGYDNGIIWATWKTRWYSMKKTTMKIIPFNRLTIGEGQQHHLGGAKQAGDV

For assay [4], the target named is T2, human vitronectin.

T1 sequence (P02751 other isoform, or with tags, fused parts or gaps): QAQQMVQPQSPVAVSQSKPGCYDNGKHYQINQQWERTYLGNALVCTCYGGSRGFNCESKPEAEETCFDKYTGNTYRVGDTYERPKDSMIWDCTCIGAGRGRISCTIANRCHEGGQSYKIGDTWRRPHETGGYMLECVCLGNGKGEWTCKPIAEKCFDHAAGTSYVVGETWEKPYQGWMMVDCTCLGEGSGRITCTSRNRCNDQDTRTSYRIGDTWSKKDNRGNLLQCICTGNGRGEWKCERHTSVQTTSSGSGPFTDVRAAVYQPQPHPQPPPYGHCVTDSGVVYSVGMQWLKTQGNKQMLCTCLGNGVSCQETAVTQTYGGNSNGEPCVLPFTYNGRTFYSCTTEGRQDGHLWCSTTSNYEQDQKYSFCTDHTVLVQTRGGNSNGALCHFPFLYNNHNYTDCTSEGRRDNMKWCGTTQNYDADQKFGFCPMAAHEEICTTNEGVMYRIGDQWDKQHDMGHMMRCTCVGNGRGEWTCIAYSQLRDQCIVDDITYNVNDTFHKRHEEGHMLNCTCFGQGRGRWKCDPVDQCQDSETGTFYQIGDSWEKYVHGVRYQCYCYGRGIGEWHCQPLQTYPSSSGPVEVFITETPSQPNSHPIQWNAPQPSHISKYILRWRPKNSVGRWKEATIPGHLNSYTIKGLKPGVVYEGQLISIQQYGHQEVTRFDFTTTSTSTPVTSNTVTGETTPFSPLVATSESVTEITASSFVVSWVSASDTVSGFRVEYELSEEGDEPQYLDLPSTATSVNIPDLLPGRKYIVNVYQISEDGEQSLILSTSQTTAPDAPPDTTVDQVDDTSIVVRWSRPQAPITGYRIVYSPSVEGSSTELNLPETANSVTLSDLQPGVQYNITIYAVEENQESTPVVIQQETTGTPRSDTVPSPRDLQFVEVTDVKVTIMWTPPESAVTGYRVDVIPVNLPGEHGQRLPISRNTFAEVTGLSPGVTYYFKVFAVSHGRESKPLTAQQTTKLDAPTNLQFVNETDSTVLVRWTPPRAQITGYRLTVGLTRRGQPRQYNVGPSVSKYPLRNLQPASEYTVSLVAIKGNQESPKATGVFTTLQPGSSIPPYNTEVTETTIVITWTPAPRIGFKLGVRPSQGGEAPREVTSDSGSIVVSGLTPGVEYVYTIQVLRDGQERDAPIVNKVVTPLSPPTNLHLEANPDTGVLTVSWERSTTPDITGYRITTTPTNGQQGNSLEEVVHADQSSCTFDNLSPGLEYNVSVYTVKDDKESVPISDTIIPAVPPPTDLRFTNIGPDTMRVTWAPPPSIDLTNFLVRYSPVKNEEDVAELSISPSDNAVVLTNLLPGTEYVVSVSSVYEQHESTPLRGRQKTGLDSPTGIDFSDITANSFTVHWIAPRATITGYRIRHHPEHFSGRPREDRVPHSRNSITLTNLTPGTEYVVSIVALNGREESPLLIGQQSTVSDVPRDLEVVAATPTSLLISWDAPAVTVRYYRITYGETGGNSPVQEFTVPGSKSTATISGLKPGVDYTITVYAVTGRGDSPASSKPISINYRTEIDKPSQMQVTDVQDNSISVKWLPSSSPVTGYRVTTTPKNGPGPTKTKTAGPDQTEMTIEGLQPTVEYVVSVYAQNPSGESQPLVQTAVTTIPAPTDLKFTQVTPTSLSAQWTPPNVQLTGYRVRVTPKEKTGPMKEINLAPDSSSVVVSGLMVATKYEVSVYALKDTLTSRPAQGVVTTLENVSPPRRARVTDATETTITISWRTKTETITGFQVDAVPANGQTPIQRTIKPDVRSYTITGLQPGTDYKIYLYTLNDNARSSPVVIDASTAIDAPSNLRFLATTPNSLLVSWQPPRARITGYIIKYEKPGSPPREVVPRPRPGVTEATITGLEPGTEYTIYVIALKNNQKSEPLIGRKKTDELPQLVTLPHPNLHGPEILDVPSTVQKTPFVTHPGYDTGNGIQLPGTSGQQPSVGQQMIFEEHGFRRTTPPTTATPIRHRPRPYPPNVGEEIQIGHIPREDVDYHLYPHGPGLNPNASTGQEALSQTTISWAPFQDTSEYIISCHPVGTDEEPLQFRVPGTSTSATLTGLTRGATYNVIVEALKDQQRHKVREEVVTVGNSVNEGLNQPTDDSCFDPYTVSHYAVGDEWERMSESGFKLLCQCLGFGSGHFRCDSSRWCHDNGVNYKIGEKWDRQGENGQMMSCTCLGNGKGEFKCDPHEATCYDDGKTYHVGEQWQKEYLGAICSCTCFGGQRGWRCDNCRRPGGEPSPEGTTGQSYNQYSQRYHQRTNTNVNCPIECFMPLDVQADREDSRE
Sequence of human tenascin C (P24821 23-2201): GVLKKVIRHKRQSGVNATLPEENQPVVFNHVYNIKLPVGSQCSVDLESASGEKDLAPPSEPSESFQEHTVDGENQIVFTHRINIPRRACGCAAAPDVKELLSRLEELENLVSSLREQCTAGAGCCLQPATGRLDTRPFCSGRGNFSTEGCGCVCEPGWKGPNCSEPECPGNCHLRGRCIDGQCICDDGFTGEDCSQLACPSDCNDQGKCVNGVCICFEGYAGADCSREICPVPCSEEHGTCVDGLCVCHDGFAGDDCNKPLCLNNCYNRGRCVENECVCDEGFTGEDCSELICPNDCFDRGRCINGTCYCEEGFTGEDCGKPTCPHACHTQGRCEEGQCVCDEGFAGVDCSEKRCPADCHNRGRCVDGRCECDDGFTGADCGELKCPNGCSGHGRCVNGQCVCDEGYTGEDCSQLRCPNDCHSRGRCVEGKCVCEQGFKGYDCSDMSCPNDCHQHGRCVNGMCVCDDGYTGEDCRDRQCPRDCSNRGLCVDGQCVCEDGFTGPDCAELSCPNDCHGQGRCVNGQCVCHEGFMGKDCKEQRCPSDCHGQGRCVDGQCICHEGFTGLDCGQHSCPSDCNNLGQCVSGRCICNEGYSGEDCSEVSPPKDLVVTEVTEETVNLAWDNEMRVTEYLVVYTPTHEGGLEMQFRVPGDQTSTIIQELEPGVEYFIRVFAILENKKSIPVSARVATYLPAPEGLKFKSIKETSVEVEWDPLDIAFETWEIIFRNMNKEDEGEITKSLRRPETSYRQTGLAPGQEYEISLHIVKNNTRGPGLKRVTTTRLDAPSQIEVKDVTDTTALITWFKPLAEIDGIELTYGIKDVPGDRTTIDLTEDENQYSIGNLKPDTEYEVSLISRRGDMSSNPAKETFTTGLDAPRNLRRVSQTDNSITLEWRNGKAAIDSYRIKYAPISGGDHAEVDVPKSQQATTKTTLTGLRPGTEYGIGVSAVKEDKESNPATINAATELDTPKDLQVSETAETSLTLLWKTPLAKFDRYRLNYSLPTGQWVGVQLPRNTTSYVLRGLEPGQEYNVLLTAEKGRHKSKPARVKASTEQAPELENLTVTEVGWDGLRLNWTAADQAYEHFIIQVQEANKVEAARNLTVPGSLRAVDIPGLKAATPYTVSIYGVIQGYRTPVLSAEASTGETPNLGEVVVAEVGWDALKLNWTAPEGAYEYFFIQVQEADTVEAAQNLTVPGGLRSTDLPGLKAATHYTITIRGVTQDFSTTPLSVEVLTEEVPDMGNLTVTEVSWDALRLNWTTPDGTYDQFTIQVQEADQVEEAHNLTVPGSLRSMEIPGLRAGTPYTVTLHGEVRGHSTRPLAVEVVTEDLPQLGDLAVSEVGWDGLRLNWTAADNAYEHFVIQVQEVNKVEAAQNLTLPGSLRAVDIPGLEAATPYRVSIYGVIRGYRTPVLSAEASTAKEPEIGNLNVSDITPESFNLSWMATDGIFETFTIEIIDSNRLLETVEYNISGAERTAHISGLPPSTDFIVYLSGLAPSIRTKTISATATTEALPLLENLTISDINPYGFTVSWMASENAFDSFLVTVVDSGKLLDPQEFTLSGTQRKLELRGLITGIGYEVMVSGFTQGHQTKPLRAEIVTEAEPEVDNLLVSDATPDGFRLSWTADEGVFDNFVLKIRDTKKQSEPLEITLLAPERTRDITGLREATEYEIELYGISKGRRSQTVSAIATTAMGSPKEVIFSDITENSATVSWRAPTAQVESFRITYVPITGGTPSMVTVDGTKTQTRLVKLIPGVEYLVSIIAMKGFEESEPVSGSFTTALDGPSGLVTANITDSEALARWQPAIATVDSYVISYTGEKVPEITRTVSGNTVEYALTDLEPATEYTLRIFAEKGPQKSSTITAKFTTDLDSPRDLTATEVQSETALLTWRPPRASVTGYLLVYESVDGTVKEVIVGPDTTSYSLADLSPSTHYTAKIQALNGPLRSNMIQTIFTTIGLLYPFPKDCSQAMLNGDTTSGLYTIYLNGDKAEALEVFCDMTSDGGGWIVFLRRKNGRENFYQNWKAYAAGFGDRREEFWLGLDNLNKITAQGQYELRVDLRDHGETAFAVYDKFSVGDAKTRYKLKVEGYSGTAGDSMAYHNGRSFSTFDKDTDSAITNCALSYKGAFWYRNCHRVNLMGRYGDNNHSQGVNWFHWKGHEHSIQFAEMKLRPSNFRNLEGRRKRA

B1: PDGF-BB (murine wild-type platelet-derived growth factor-BB) (ligand)
chain: SLGSLAAAEPAVIAECKTRTEVFQISRNLIDRTNANFLVWPPCVEVQRCSGCCNNRNVQCRASQVQMRPVQVRKIEIVRKKPIFKKATVTLEDHLACKCETIVTPRPVT
B1: the dissociation constant (Kd) was determined as 60.2 nM with human plasma fibronectin [1] and 29.8 nM with human vitronectin [2].

B2: BMP-2 (bone morphogenetic protein-2, Peprotech) (ligand)
chain: QAKHKQRKRLKSSCKRHPLYVDFSDVGWNDWIVAPPGYHAFYCHGECPFPLADHLNSTNHAIVQTLVNSVNSKIPKACCVPTELSAISMLYLDENEKVVLKNYQDMVVEGCGCR
Turning to B2, the Kd in the assay with human plasma fibronectin [3] was 49.9 nM; with human tenascin C it was 19.5 nM; with human fibrinogen it was 46.4 nM; with human vitronectin [4] it was 12.6 nM.
